Measured values as given in article PMC10786891, “Massively parallel profiling of RNA-targeting CRISPR-Cas13d”.

T1: EsCas13d, nuclease-dead (Eubacterium siraeum, UniProt B0MS50, R295A;H300A;R849A;H854A)
T1 sequence: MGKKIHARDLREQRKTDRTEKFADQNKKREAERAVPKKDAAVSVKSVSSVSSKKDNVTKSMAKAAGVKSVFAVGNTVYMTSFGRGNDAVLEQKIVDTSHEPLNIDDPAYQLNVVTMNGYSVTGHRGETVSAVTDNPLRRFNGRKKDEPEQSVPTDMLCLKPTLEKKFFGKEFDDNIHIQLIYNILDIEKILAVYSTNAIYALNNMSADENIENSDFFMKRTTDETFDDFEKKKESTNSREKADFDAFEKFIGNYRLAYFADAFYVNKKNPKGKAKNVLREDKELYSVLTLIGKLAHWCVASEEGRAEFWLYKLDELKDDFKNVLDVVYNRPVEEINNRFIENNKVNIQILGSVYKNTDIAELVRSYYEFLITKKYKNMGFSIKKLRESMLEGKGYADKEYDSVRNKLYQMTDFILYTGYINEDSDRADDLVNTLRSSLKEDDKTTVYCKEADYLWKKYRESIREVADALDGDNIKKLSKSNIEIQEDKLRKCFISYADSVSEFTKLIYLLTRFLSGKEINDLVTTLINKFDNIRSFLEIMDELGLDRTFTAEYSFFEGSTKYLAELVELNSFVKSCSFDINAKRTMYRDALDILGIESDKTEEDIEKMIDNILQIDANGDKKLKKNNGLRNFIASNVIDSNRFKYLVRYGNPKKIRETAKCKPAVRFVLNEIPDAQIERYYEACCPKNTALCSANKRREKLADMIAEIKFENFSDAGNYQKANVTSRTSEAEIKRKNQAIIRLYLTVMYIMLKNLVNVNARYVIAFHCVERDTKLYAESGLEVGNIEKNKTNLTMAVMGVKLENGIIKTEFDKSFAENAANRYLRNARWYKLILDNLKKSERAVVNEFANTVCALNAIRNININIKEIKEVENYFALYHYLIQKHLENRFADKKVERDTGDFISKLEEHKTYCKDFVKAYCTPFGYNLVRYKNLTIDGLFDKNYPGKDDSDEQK


Target: T1, EsCas13d, nuclease-dead
Experiment: crRNA (strand 1, pre-loaded); Mg2+; 40 mM Tris-HCl pH 7.5, 150 mM NaCl, 6 mM MgCl2, 1 mM DTT, 0.1% Tween-20, 0.2 mg/ml BSA; 25 C; 10 min per concentration, then washed
Details: tags: His6-TwinStrep-SUMO cleaved; N-terminal SNAP kept (SNAP-Surface 488); label: 3' end held by stalled T7 RNA polymerase

Binder	Kd [nM]
target 3 insC 3' of 5,insA 3' of 1 (mixed) RNA 1: CACCCGUGCAAAAUUGCAGGGGUCUAAAACGACCUGAAUAUUUCAGAUCAAA RNA 2: GGGAAUGGAUCCACAUCUACGAAUUCGUUUUUGAUCUGAAAUAUUCACGGUCAUGCAGAUCGGAAGAGCACACGU	23.1 ± 4.05
target 3 insG 3' of 2,insA 3' of 1 (mixed) RNA 1: CACCCGUGCAAAAUUGCAGGGGUCUAAAACGACCUGAAUAUUUCAGAUCAAA RNA 2: GGGAAUGGAUCCACAUCUACGAAUUCGUUUUUGAUCUGAAAUAUUCAGGUGCAUGCAGAUCGGAAGAGCACACGU	54.2 ± 6.65
target 3 A5U,C6A (mixed) RNA 1: CACCCGUGCAAAAUUGCAGGGGUCUAAAACGACCUGAAUAUUUCAGAUCAAA RNA 2: GGGAAUGGAUCCACAUCUACGAAUUCGUUUUUGAUCUGAAAUAUUAUGGUCUGCAGAUCGGAAGAGCACACGU	29.9 ± 2.7
target 3 insU 3' of 22,insU 3' of 3 (mixed) RNA 1: CACCCGUGCAAAAUUGCAGGGGUCUAAAACGACCUGAAUAUUUCAGAUCAAA RNA 2: GGGAAUGGAUCCACAUCUACGAAUUCGUUUUUUGAUCUGAAAUAUUCAGGUUCUGCAGAUCGGAAGAGCACACGU	27.2 ± 4.15
target 3 C1A,U2A (mixed) RNA 1: CACCCGUGCAAAAUUGCAGGGGUCUAAAACGACCUGAAUAUUUCAGAUCAAA RNA 2: GGGAAUGGAUCCACAUCUACGAAUUCGUUUUUGAUCUGAAAUAUUCAGGAAUGCAGAUCGGAAGAGCACACGU	49 ± 6.5
target 3 U7C,U8G (mixed) RNA 1: CACCCGUGCAAAAUUGCAGGGGUCUAAAACGACCUGAAUAUUUCAGAUCAAA RNA 2: GGGAAUGGAUCCACAUCUACGAAUUCGUUUUUGAUCUGAAAUAGCCAGGUCUGCAGAUCGGAAGAGCACACGU	73.5 ± 12.5
target 3 insC 3' of 13,insG 3' of 2 (mixed) RNA 1: CACCCGUGCAAAAUUGCAGGGGUCUAAAACGACCUGAAUAUUUCAGAUCAAA RNA 2: GGGAAUGGAUCCACAUCUACGAAUUCGUUUUUGAUCUGACAAUAUUCAGGUGCUGCAGAUCGGAAGAGCACACGU	50 ± 11
target 3 C6G,U7G (mixed) RNA 1: CACCCGUGCAAAAUUGCAGGGGUCUAAAACGACCUGAAUAUUUCAGAUCAAA RNA 2: GGGAAUGGAUCCACAUCUACGAAUUCGUUUUUGAUCUGAAAUAUGGAGGUCUGCAGAUCGGAAGAGCACACGU	46.5 ± 4.5
target 3 insC 3' of 9,insG 3' of 7 (mixed) RNA 1: CACCCGUGCAAAAUUGCAGGGGUCUAAAACGACCUGAAUAUUUCAGAUCAAA RNA 2: GGGAAUGGAUCCACAUCUACGAAUUCGUUUUUGAUCUGAAAUACUUGCAGGUCUGCAGAUCGGAAGAGCACACGU	88 ± 21
target 3 U2C,C6A (mixed) RNA 1: CACCCGUGCAAAAUUGCAGGGGUCUAAAACGACCUGAAUAUUUCAGAUCAAA RNA 2: GGGAAUGGAUCCACAUCUACGAAUUCGUUUUUGAUCUGAAAUAUUAAGGCCUGCAGAUCGGAAGAGCACACGU	39 ± 7
target 3 G3C,U21A (mixed) RNA 1: CACCCGUGCAAAAUUGCAGGGGUCUAAAACGACCUGAAUAUUUCAGAUCAAA RNA 2: GGGAAUGGAUCCACAUCUACGAAUUCGUUUAUGAUCUGAAAUAUUCAGCUCUGCAGAUCGGAAGAGCACACGU	72.5 ± 13.5
target 3 insU 3' of 18,insC 3' of 11 (mixed) RNA 1: CACCCGUGCAAAAUUGCAGGGGUCUAAAACGACCUGAAUAUUUCAGAUCAAA RNA 2: GGGAAUGGAUCCACAUCUACGAAUUCGUUUUUGAUUCUGAAACUAUUCAGGUCUGCAGAUCGGAAGAGCACACGU	49 ± 9
target 3 insA 3' of 8,insA 3' of 3 (mixed) RNA 1: CACCCGUGCAAAAUUGCAGGGGUCUAAAACGACCUGAAUAUUUCAGAUCAAA RNA 2: GGGAAUGGAUCCACAUCUACGAAUUCGUUUUUGAUCUGAAAUAUAUCAGGAUCUGCAGAUCGGAAGAGCACACGU	73 ± 18.5
target 3 insG 3' of 5,insG 3' of 1 (mixed) RNA 1: CACCCGUGCAAAAUUGCAGGGGUCUAAAACGACCUGAAUAUUUCAGAUCAAA RNA 2: GGGAAUGGAUCCACAUCUACGAAUUCGUUUUUGAUCUGAAAUAUUCAGGGUCGUGCAGAUCGGAAGAGCACACGU	37 ± 9.5
target 3 U2G,U7G (mixed) RNA 1: CACCCGUGCAAAAUUGCAGGGGUCUAAAACGACCUGAAUAUUUCAGAUCAAA RNA 2: GGGAAUGGAUCCACAUCUACGAAUUCGUUUUUGAUCUGAAAUAUGCAGGGCUGCAGAUCGGAAGAGCACACGU	20.9 ± 2.45
target 3 C16U (mixed) RNA 1: CACCCGUGCAAAAUUGCAGGGGUCUAAAACGACCUGAAUAUUUCAGAUCAAA RNA 2: GGGAAUGGAUCCACAUCUACGAAUUCGUUUUUGAUUUGAAAUAUUCAGGUCUGCAGAUCGGAAGAGCACACGU	82.5 ± 14
target 3 insU 3' of 9,insG 3' of 9 (mixed) RNA 1: CACCCGUGCAAAAUUGCAGGGGUCUAAAACGACCUGAAUAUUUCAGAUCAAA RNA 2: GGGAAUGGAUCCACAUCUACGAAUUCGUUUUUGAUCUGAAAUAUGUUCAGGUCUGCAGAUCGGAAGAGCACACGU	89.5 ± 24.5
target 3 insU 3' of 16,insC 3' of 3 (mixed) RNA 1: CACCCGUGCAAAAUUGCAGGGGUCUAAAACGACCUGAAUAUUUCAGAUCAAA RNA 2: GGGAAUGGAUCCACAUCUACGAAUUCGUUUUUGAUCUUGAAAUAUUCAGGCUCUGCAGAUCGGAAGAGCACACGU	64.5 ± 10
target 3 insA 3' of 7,insC 3' of 4 (mixed) RNA 1: CACCCGUGCAAAAUUGCAGGGGUCUAAAACGACCUGAAUAUUUCAGAUCAAA RNA 2: GGGAAUGGAUCCACAUCUACGAAUUCGUUUUUGAUCUGAAAUAUUACAGCGUCUGCAGAUCGGAAGAGCACACGU	48.5 ± 8
target 3 C1G,U2A (mixed) RNA 1: CACCCGUGCAAAAUUGCAGGGGUCUAAAACGACCUGAAUAUUUCAGAUCAAA RNA 2: GGGAAUGGAUCCACAUCUACGAAUUCGUUUUUGAUCUGAAAUAUUCAGGAGUGCAGAUCGGAAGAGCACACGU	4.6 ± 0.7
target 3 G3U,U8A (mixed) RNA 1: CACCCGUGCAAAAUUGCAGGGGUCUAAAACGACCUGAAUAUUUCAGAUCAAA RNA 2: GGGAAUGGAUCCACAUCUACGAAUUCGUUUUUGAUCUGAAAUAAUCAGUUCUGCAGAUCGGAAGAGCACACGU	89 ± 14.5
target 3 C1U,U2A (mixed) RNA 1: CACCCGUGCAAAAUUGCAGGGGUCUAAAACGACCUGAAUAUUUCAGAUCAAA RNA 2: GGGAAUGGAUCCACAUCUACGAAUUCGUUUUUGAUCUGAAAUAUUCAGGAUUGCAGAUCGGAAGAGCACACGU	86 ± 24
target 3 C1A,C16U (mixed) RNA 1: CACCCGUGCAAAAUUGCAGGGGUCUAAAACGACCUGAAUAUUUCAGAUCAAA RNA 2: GGGAAUGGAUCCACAUCUACGAAUUCGUUUUUGAUUUGAAAUAUUCAGGUAUGCAGAUCGGAAGAGCACACGU	~91
target 3 insC 3' of 7,insU 3' of 5 (mixed) RNA 1: CACCCGUGCAAAAUUGCAGGGGUCUAAAACGACCUGAAUAUUUCAGAUCAAA RNA 2: GGGAAUGGAUCCACAUCUACGAAUUCGUUUUUGAUCUGAAAUAUUCCAUGGUCUGCAGAUCGGAAGAGCACACGU	57 ± 7.5
target 3 insA 3' of 6,insC 3' of 3 (mixed) RNA 1: CACCCGUGCAAAAUUGCAGGGGUCUAAAACGACCUGAAUAUUUCAGAUCAAA RNA 2: GGGAAUGGAUCCACAUCUACGAAUUCGUUUUUGAUCUGAAAUAUUCAAGGCUCUGCAGAUCGGAAGAGCACACGU	7.7 ± 0.6
target 1 insA 3' of 17,insG 3' of 3 (mixed) RNA 1: CACCCGUGCAAAAAUGCAGGGGUCUAAAACUGAGCGGAUAACCUCUCUAUGG RNA 2: GGGAAUGGAUCCACAUCUACGAAUUCGUACCAUAGAAGAGGUUAUCCGCUGCACCGAGAUCGGAAGAGCACACGU	10.9 ± 0.6
target 1 insA 3' of 22,insA 3' of 6 (mixed) RNA 1: CACCCGUGCAAAAAUGCAGGGGUCUAAAACUGAGCGGAUAACCUCUCUAUGG RNA 2: GGGAAUGGAUCCACAUCUACGAAUUCGUACACAUAGAGAGGUUAUCCAGCUCACCGAGAUCGGAAGAGCACACGU	22.2 ± 1.3
target 1 insC 3' of 17,insU 3' of 2 (mixed) RNA 1: CACCCGUGCAAAAAUGCAGGGGUCUAAAACUGAGCGGAUAACCUCUCUAUGG RNA 2: GGGAAUGGAUCCACAUCUACGAAUUCGUACCAUAGCAGAGGUUAUCCGCUCUACCGAGAUCGGAAGAGCACACGU	55 ± 18
